Results: the DeepSol protein solubility set

Experiment: soluble on expression in E. coli; label from the status in PepcDB or PDB records

**Q.** For “MTSRWGKYLLSGIMIAVLAGCQSRPTDRGQQYKDGRLEQSLELVNEPNAAGKPVNAKDYSDQVKVINQSSPGLYNRNSDTFNAVQNWMLAGADTSKLSLFGLNAYQMEGVDNFGNVQFTGYYTPVLQARYTPQGEFRHPLYRMPAKGKRRLPDRAAIYAGALDNRNLIIAYTNSLVDNFMMEVQGSGYVDYGDGRPLTFFGYAGKNGHAYRSIGKVLIDRGEVARADMSMQAIRQWAENHSEAEVRELLEQNPSFVFFKPVMYAPVKGASAVPLIAKASVASDKSLIPPGTTLLAEVPLLDDQGKFTGKYQMRLMVALDVGGAIKGQHFDIYQGIGHEAGQAAGFYNHYGRVWVLKNAQSSGPLFTAYKGGTQSEPTSNDSSLLVNNQDR”, which “soluble on expression in E. coli” value is on record?
**A.** The value was “not soluble”.

**Q.** With “MSNEDSLPPFTLFGLDDVENYGLVTEADNSLPLDIHNQVFQLVEKGNQSFKESRFEEAISSYSKANSIKPLDPIVLGNRSAAYIRFGQYLKQRSASISEYKPLNGFDMSMLGELALKDADKLMSLQSSLVKSYITKACALMLLERYEVARDTILSGLQIDPFSGPLRSNLQELEKVMPNSMRKTHGMAERSDDFDCTVCLKLLYEPATTPCGHTFCRSCLFQSMDRGNKCPLCRTVIFMTPRTCAVSVTLNNIIEKNFPEEYAERKSEQDTLVHLGNESMPLFVMDVIIPCQKLSLHIFEPRYRLMVRRIMEGNHRMGMVALDSATGSPVDVACEVEITECDPLPDGRFVLELESHRRCRIVKAWDQDGYRVAEVEWVKDIPPQSEQGKADLRELTTSAASFARSWLDRAKEAARQGDRRRLEILLNVESMIPTPQDPERFSFWLATLTDRRPSERLELLRLQDTGEVLDYRLVQIARQISLFHQSLSFDC” as the sequence, how does the “soluble on expression in E. coli” value read?
**A.** The value was “not soluble”.

**Q.** For “MAGDPMRTYENKEELKAEIEKTFEKYILEFDNIPENLKDKRADEVDRTPAENLAYQVGWTNLVLKWEEDERKGLQVKTPSDKFKWNQLGELYQWFTDTYAHLSLQELKAKLNENINSISAMIDSLSEEELFEPHMRKWADEATKTATWEVYKFIHVNTVAPFGTFRTKIRKWKKIVLLEHHHHHH”, which “soluble on expression in E. coli” value is on record?
**A.** The value was “soluble”.

**Q.** With “MGSDKIHHHHHHMSEDLLNSFQEAYSNLELFPLMERNEMERFRVEYGDDLIADLNQLVEDSPNGDGKIVFTGHRGCGKSTLLAEFSRQIQDKYFVVLFSIADKIEMSAVNHINILFAIAVNLMTEAEARKVDIPQSTKEALYKWFATRTRTEESNLQAEVSIGFDLLKLISSKLKADASVRDEIKQEFERKLSDLVARINEIAALIQAATKQNVLVIIDDLDKLDLGRVNEIYRDNIKALCQPNFQIIYTIPIAVLRETFISTIIATETNDQVVAMPVLKIFDKGKNRFPNAQPRREATKILGEVLQKRIPNELIAAETAEKIVIYSGGVLRELIRISKECCRICLRTIRRNPSAEVIIDDKILLQAINKIRNDFSIRLGKTDIDILQSVYEQFMPNDPKQAEFLDLLHGLYVLEYRTDETWYDVHPIIIESLKRQGAINVK” as the sequence, how does the “soluble on expression in E. coli” value read?
**A.** Its value is “not soluble”.

**Q.** With “MRVASVRWFTPPTRPRPAPLFFGQERALRALEAAFLHRGHGYLVGPSGLGKRARLLAFLEGRAFPKEELVYLPLGEEAFPLLLPEGEGRALVEGVEALFAEFTPGLFREKGFLYAKNLVESRHEREAEALLQTLAQEAKAHGFALAEEEGGFTLTGQGPLPPELSAKLEETVLAYVEVRQRAQAEVAALRRSFAERLLQPRVEGLKARFPEAARYLDWLLESLLRAAALEEEVEGEALLPRLLVEGGTRVVYEPNPTPERLFGHLEYEVREGVLTTHLGLLRPGALMRAAGGVLVLEAHRVLELGSYPLLKRSLATGEIEPLAPRPEVRGPRLQPAPLKAQVFLVGPPEVIALLEEDEEFLELFPFRVEFNPEMPYTEAHVAHLGGFLEAQGVRLLPEGLAALADEARRMAGHQERLDARIYRLLDLAREAARYQDPVGREGVERALKAREDRFALEQELFLKDVEEGVVALEVTGERVGEVNGLVVLEGPLPTGRPVRITAQAGPGREGILSIDREVGLGGQVFHKAVLTLAGYLRGTYAQLGALSATVSLVFEQSYGSLEGDSAGLAELLAVLSAISGLPLRQDLAVTGAVDQTGRVLAVGRVAEKVEGFFRVCQTLGLTGTQGVVLPKANLPHLTLRREVVEAVEEGVFHLFAVEEVDEAVELLFGRRAYWVHEKVREALEHFQKLENGDGEKG” as the sequence, how does the “soluble on expression in E. coli” value read?
**A.** The value was “soluble”.

**Q.** Which “soluble on expression in E. coli” value does the source give for “MNQLVCPLCCETLKEEGAHFYKHFKYKRYACGESTCDMGFYTQQELNAHCSKHGHKRSFQKTVNPYIDKMISVVVEDAYALATDDMETVLEKRWGRDPRSVSPTSPVKKTPTDSAKNKRSSVVTPTSPPVPKKAKSGTSTTSPFAFLNRRTNNSESSLCPNASSTSAQPASSSSAQAIVDSTTSEHNISIDKTKKPRKKRNESMTAAQNQEKAGKNANYDEMSAIDKLIGWFDPNVPERRDAAKVKCAVCNEEIVYDFILRKGHVTRSHMAADVAPEDYDDLLKTAMDRSYPDLPNSDLACQLCMTGAEVRKNMRREHIEKLHTTSLPPLTCPVGECEKGFRRQCDLSSHMKDTHKASMAVYKNATFQQVRRRRNAMINEMINKCFPWSRLEAIENKTVVGEKSDSVNRAPVDRSFDTDVRVRDVNKTRRAPQYNANRSSSSDSDSEHEEAASVATGEVSETGGTDDFPQDVIYICHQFNTEVAQKLSQIVRIKPEIIDVEDVLMNDVTMEINEIPVKEETEEEQPKEENNSTLPSIPIPSIFSPYEPIVPPPATSPDPMNPPIASLLPTRILSATNVLENKYNENVSSRRSTSRERSSNRNYDERWSRNDYSNPRNYSNRSFHQRNQRGHSSSNRFNSPFVSRNNYNNNSETTEGSSRRSEYNSSSSNHHSRSSYRGNRDDRGSRW” here?
**A.** Its value is “not soluble”.

**Q.** Which “soluble on expression in E. coli” value does the source give for “MLYVLNKCNGLESVEIIHYNNETTDMKELVENPIIVNCKQVTISTVGGMYGSRELLMNFQIERLISGDSAIGTRFRQGSYEPDHVMSLVNSCFKDRVVNFQDHQGLRLRTDNLAKQILVKKCCRDDFEFEWGVSCRVIPSNLQDIDFEEDWPIWTDIDSDEDCDYSSDDEYEYQYNSDSD” here?
**A.** The value was “not soluble”.

**Q.** Which “soluble on expression in E. coli” value does the source give for “MGSDKIHHHHHHENLYFQGMARTAEEQANHDLVIEMYNKVLIAMDSSAVDRYIAPGYVQHSSLAEPSVEALKGFLDRVRAESPDARQTIHRSFVDGDHVITHTHVERWPGDAGLAVVDIFRVEGGMIVEHWDVIQDVPANPVNPNSMF” here?
**A.** The value was “soluble”.

**Q.** With “MPEKYTTPYPARRIHSDGRAEDTEVLLAKECPVKLFLDGKQFTTLFASPLELKELAVGHLITEGILSFKEIAGVEVEGNEVHILTLKGKHPIQDESSRPAGGETKKQIFVNSDAVFDPEALFEGIAYLESDTYKLTRGTHLAALIDKKGKLAVQIVDVGRHNAVDKVVGAAFLRMIDLSQHYMLSTGRQPAYMVTKAARAGIPLVATKAMPFDSGVEAAKKANLCLVGQLRKESMLVFTNEWRVRIAAALEHHHHHH” as the sequence, how does the “soluble on expression in E. coli” value read?
**A.** Its value is “not soluble”.

**Q.** With “SNASAFTEGTDYMVLEKPIPNADKTLIKVFSYACPFCYKYDKAVTGPVSDKVADLVTFTPFHLETKGEYGKQASEVFAVLIAKDKAAGISLFDAKSQFKKAKFAWYAAYHDKKERWSDGKDPAAFIKTGLDAAGMSQADFEAALKDPAVQETLEKWKAAYDVAKIQGVPAYVVNGKYLIYTKNIKSIDSMAELVRELATKK” as the sequence, how does the “soluble on expression in E. coli” value read?
**A.** The value was “soluble”.

**Q.** For “MNNHSNKHWHLQMYLPEGKKGVQIRSEDMLKEPQPVIGTGEWNNRQCQDFKELHIGTIILVREGKKAIALCEVTSGCYTDKELHEKYRHSNFRNVKVLDFIAEKDQPPPRLFSQGTLKSCGEWTHQWEYIDKLISLMDKNNPIEEYSQLKEYAQLLESKKNIILQGAPGTGKTYTTASIAVHMCNKNFTDYTDHSKVIEEYERLRDTGQIAFCTFHQSMDYEDFVEGLKPEVKSNNVEYNVENGIFKSICEQAKTKEEADIITCIDKYLQSIKGYENKKKIPTISGRSDLWVWWIEGNDTISTRSAISKSEKGEQYSLSPLNIEKVKLQAIGEAIENNWRQYAQAFINAVKKEYQLDKQISDKPYVLIIDEINRGNVSKIFGELITLLEADKRSGAGSDSNHCISLILPYSKENFSVPSNLYIIGTMNTTDRSTGTIDYAVRRRFAFVTLKSSDKVIKEYAEKQSVEDNVRDASLALFTQINGNLKNDKESFIAKHKAADFELEDLKVGHSYFMAKDIDMLKMKMRYEVVPLIKEYIKDGILRGMQGDESYFEKWMNAECFHQSEPTTNDN”, which “soluble on expression in E. coli” value is on record?
**A.** Its value is “not soluble”.

**Q.** For “MWRGKYSGGYQNRFVSAKSSGTSSLSDGKSMNNVPPPAALTVGNAPVPPPNRNILLSNRKEQEMKKEQEYANLMAYGSTSEKQSRRKRIYDDEYLEGGSDDEKPASSSSKLAADDDDEEDELDAFMAGIEKQASSDKKVSEQKEKDRKEGKDTEDPSKKGLGRADIDEEDMQESLFKFMEEYKEKHENDDEQLEYDEDGNIIWSWKKVIDPLPDIDHSQIQYQKFNKNFYEEHEDIKRLHYMDVIRLQNTMNLRVGGLKPPRPVCSFAHFSFDKLLMEAIRKSEYEQPTPIQAMAIPSALSGRDVLGIAKTGSGKTAAYLWPAIVHIMDQPDLKAGEGPVAVIVVPTRELAIQVFQEAKKFCKVYNINPICAYGGGSKWEQSNELQNEGAEMVVCTPGRIIDLVKMGATNFLRTTFLVFDEADRMFDMGFEAQVKSISDHVRPDRQCLMFSATFKQKVERLARDALVDPVRIVQGEVGEANADIEQKVFVMQNQDVKLHWLIRNLVEFASLGKVLIFVTKKLDSEDVAKKLKMKDFDIVLLHGDMLQAERNENLLKFRKKSQILVATDVAARGLDISEIRTVINFDMARDIDTHVHRIGRTGRAGHKGTAYTLVTEKDIEMVGHLVKNLESVSQEVPKPLMDLAMKSSWFRGQRAGNGGPSTGTQTRGRMGLGYTPKVRQVGGGATGAQFDPLKEQKSCRGGGNQTVDGMIRNAQSFATSSSSSSSSSSGPASGANRAQMLKSAFQKSFQTTFQRPTNESSNLPQQVASDPRPEWKKKVDELNAKIAQQQASSASGGSSSSSSSSKRSRWE”, which “soluble on expression in E. coli” value is on record?
**A.** The value was “not soluble”.

**Q.** For “MGSDKIHHHHHHMNIRILGCHGSQVPGCNTTSFLVEENVLIDAGSITSTLTAEEQVKVDYIFVTHAHLDHVKEMMFMVDNLWYLQKSNPLTIVSIEPVIHALKTHLFNGLIWPDFSSLPNAENPVLRYEILEVGGKRNIGSFAVTAISVNHTVETVSYVIETGQGSMIFIGDTGPTEEIWKVANSIEDLKAIFVETSLPDEMNHIAEMTGHLTPAMLMKELFKLNNKNLDIYLYHMKDFYSKLITRQVAAMNQNRLHILEDGQTVRI”, which “soluble on expression in E. coli” value is on record?
**A.** Its value is “not soluble”.

**Q.** With “MSLSAGLRFTLEVDGLPPDAFAVVSFHLNQSFSSLFSLDLSLVSQQFLSLEFAQVLDKMAYLTVWQGDDVQRRVKGVVTWFELGENDKNQMLYSMKVCPPLWRTGLRQNFRIFQNEDIESILATILKENGVTEWSPLFSEPHPSREFCVQYGETDYDFLCRMAAEEGIFFYEEHAQKSTDQSLVLCDTVRYLPESFEIPWNPNTRTEVSTLCISQFLYSAQIRPSSVVTKDYTFKRPGWAGRFDQEGQHQDYQRTQYEVYDYPGRFKGAHGQNFACWQMDGWRNNAEVARGTSRSPEIWPGRRIALTGHPQANLNREWQVVASELHGEQPQAVPGRRGSGTTLNNHFAVIPADRTWRPQPLLKPLVDGPQSAVVTGPAGEEIFCDEHGRVRVKFNWDRYNPSNQDSSCWIRVAQAWAGTGFGNLAIPRVGQEVIVDFLNGDPDQPIIMGRTEGHHHHHH” as the sequence, how does the “soluble on expression in E. coli” value read?
**A.** The value was “not soluble”.

**Q.** For “MSHKLTILPFLIKFTPKFPQSIDHDEHGLNVYAFDLDHTIIKPKSPNISFSRSASDWQFINFNSKKSTLDYLCNIIDNDPTAVIVIFSNQGGVITVPRTSKSCTKYTNKILLFLKAIKNDERGETLSHRLWLYAAPKRPKTFAANHSKITFASLGESYNNDPNIFEKVRKPMTGMVEFFKRDLESAYRVSEQISPIKLNWIYYCGDAAGRKKDFSDSDIKFAENLHVEFKYPEEIFHG”, which “soluble on expression in E. coli” value is on record?
**A.** The value was “soluble”.
